In general, Kd refers to the concentration at which binding is half-saturated. The koff is a measure of how fast the partners let go of each other. The term kon denotes a measure of how fast the partners come together. As usually defined, the t½ is the time needed for the level to fall by half in the phase considered.

The record followed here is patent US20150203579A1 (Regeneron, published 2015).

Experiment [1] addresses T1, recombinant human PD-1 expressed with a C-terminal myc-myc-hexahistidine tag (human).
T1 construct: monomeric; also called hPD-1-MMH; human PD-1-MMH
Briefly: SPR, mAb captured, 37C.

In experiment [2] the target is T2, human PD-1 dimer (human PD-1-mFc or human PD-1-hFc) (human, UniProt Q15116 25-170).
T2 construct: also called hPD-1-mFc; hPD1-hFc
In words: SPR, mAb captured, 25C. In general terms: In SPR one partner is held on a chip, and binding of the other changes the refractive index at the surface.

Experiment [3] deals with T2, human PD-1 dimer (human PD-1-mFc or …). Briefly: SPR, mAb captured, 37C.
Experiment [4] deals with T3, recombinant cynomolgus monkey PD-1 expressed with a C-terminal myc-myc-hexahistidine tag (cynomolgus monkey (Macaca fascicularis)).
T3 construct: monomeric; also called MfPD-1-MMH
T3 chain: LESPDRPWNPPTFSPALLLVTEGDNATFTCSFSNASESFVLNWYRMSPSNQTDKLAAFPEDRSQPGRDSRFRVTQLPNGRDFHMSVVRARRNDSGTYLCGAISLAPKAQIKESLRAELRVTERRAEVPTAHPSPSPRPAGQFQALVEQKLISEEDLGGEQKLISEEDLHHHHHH
Briefly: SPR, mAb captured, 25C.

The target in experiment [5] is T3, recombinant cynomolgus monkey PD-1 …. Briefly: SPR, mAb captured, 37C.

T2 sequence (Q15116 25-170 C93S): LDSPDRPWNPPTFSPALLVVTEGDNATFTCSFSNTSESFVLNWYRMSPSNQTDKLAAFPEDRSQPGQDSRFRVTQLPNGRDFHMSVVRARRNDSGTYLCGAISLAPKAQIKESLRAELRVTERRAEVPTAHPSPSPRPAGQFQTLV

B1: H2aM7794N (antibody, V domains shown)
VH: QLQLQESGPDLVKPSDTLSLTCTVSDDSISSTTYYWAWIRQPPGKGLEWIGSMSYNGNNYYNPSLKSRVAISAGTSQKQFSLKLTSVTAADTAVYHCARHLGYNGNWYPFDFWGQGILVTVSS
VL: not shown
notes: Human variable regions, mouse IgG2a Fc; also called H2M7794N
On to B1, for which the Kd in experiment [1] is 66.1 nM; in experiment [2] it was 0.593 nM; in experiment [3], 0.452 nM; in experiment [4], 166 nM; in experiment [5], 302 nM. Moreover, the koff is 0.00792 s⁻¹ in experiment [1]; 0.000106 s⁻¹ in experiment [2]; 0.000211 s⁻¹ in experiment [3]; 0.00599 s⁻¹ in experiment [4]; 0.0201 s⁻¹ in experiment [5]. For the same molecule, the kon in experiment [1] was determined as 120000 M⁻¹ s⁻¹; in experiment [2], 179000 M⁻¹ s⁻¹; in experiment [3], 468000 M⁻¹ s⁻¹; in experiment [4], 36000 M⁻¹ s⁻¹; in experiment [5], 66600 M⁻¹ s⁻¹. Besides, the t½ in experiment [1] was 1.5 min; in experiment [2] it was 109 min; in experiment [3], 55 min; in experiment [4], 1.9 min; in experiment [5], 0.6 min.

B2: H2aM7780N (antibody, mouse IgG2a, V domains shown)
VH: QVQLVESGGGVVQSGRSLRLSCAASGFTFSSYGMHWVRQAPGKGLEWVAVIWYDGSNIYYSDSVKGRFTISRANSKNTLYLQMNSLRAEDTAVYYCARPGHWNYFFEYWGQGTLVTVSS
VL: DIQMTQSPSSLSASVGDRVTITCRASQSINNYLNWYQQKPGKAPKLLIYTASSLQSGVPSRFSGSGSGTDFTLTISSLQPEDFATYYCQQSYSTPPLTFGQGTQLEIK
notes: Human variable regions, mouse IgG2a Fc (H2aM prefix); also called H2M7780N
Turning to B2, the Kd in experiment [1] is 55.8 nM; in experiment [2] it was 0.236 nM; in experiment [3] it was 0.23 nM; in experiment [4], 31.5 nM; in experiment [5], 60.5 nM. For the same molecule, the koff in experiment [1] amounted to 0.00152 s⁻¹; in experiment [2], 9.94e-06 s⁻¹; in experiment [3], 2.29e-05 s⁻¹; in experiment [4], 0.000315 s⁻¹; in experiment [5], 0.00138 s⁻¹. In addition, the kon is 27200 M⁻¹ s⁻¹ in experiment [1]; 42100 M⁻¹ s⁻¹ in experiment [2]; 99400 M⁻¹ s⁻¹ in experiment [3]; 10000 M⁻¹ s⁻¹ in experiment [4]; 22900 M⁻¹ s⁻¹ in experiment [5]. For the same molecule, the t½ was determined as 7.6 min in experiment [1]; 1160 min in experiment [2]; 505 min in experiment [3]; 37 min in experiment [4]; 8.3 min in experiment [5].

B3: H1M7789N (antibody, mouse IgG1, V domains shown)
VH: EVQLLESGGGLVQPGGSLRLSCSASGFTFSSYTMNWVRQAPGKGLEWVSGISDTGGNTYYTDSVKGRFTVSRDNSKNTLSLQMNSLRAEDTAVYYCAKDQGGSYPYYFHYWGQGSLVTVSS
VL: DIQMTQSPSSLSASVGDRVTITCRASQSISSYLIWYQQKPGTAPKFLIYAASSLQSGVPSRFSGCGSGTDFTLTISSLQPEDFATYYCQQSYSTPPITFGQGTRLEIK
notes: Human variable regions, mouse IgG1 Fc
In the case of B3, the Kd in experiment [1] was 6.52 nM; in experiment [2], 1.1 nM; in experiment [3] it was ≤ 0.0917 nM; in experiment [4] it was 7.89 nM; in experiment [5] it was 8.5 nM. Also, the koff was 0.000295 s⁻¹ in experiment [1]; 4.31e-05 s⁻¹ in experiment [2]; ≤ 1e-05 s⁻¹ in experiment [3]; 0.000123 s⁻¹ in experiment [4]; 0.000408 s⁻¹ in experiment [5]. Moreover, the kon came out at 45300 M⁻¹ s⁻¹ in experiment [1]; 39100 M⁻¹ s⁻¹ in experiment [2]; 109000 M⁻¹ s⁻¹ in experiment [3]; 15500 M⁻¹ s⁻¹ in experiment [4]; 47900 M⁻¹ s⁻¹ in experiment [5]. Further, the t½ is 39 min in experiment [1]; 268 min in experiment [2]; ≥ 1160 min in experiment [3]; 94 min in experiment [4]; 28 min in experiment [5].

B4: H1M7799N (antibody, mouse IgG1, V domains shown)
VH: EVQLVESGGGLVQPGGSLRLSCAASGFTVSNNYMSWVRQAPGKGLEWVSVIYSGGFTYYTDSVKGRFTISRHNSKNTLYLQMNSLRAEDTAVYYCARYYYDTSDYWTFFDYWGQGTLVTVSS
VL: EIVMTQSPATLSVSPGERATLSCRASQSVSSNLAWYQQKPGQAPRLLIYGASTRATGIPARFSGSGSGTEFTLTISSLQSGDFAVYYCQQYNNWPLTFGGGTKVEIN
notes: as for B3
As for B4, the dissociation constant Kd in experiment [1] amounted to 536 nM; in experiment [2], 0.36 nM; in experiment [3] it was 0.411 nM; in experiment [4], 224 nM; in experiment [5] it was 530 nM. Also, the koff in experiment [1] turned out to be 0.0425 s⁻¹; in experiment [2], 8.55e-05 s⁻¹; in experiment [3], 0.000181 s⁻¹; in experiment [4] it was 0.013 s⁻¹; in experiment [5], 0.0467 s⁻¹. Moreover, the kon in experiment [1] amounted to 79400 M⁻¹ s⁻¹; in experiment [2] it was 238000 M⁻¹ s⁻¹; in experiment [3], 441000 M⁻¹ s⁻¹; in experiment [4], 57800 M⁻¹ s⁻¹; in experiment [5] it was 88000 M⁻¹ s⁻¹. For the same molecule, the t½ worked out at 0.3 min in experiment [1]; 135 min in experiment [2]; 64 min in experiment [3]; 0.9 min in experiment [4]; 0.2 min in experiment [5].

B5: H2aM7798N (antibody, mouse IgG2a, V domains shown)
VH: EVQLLESGGVLVQPGGSLRLSCAASGFTFSNFGMTWVRQAPGKGLEWVSGISGGGRDTYFADSVKGRFTISRDNSKNTLYLQMNSLKGEDTAVYYCVKWGNIYFDYWGQGTLVTVSS
VL: DIQMTQSPSSLSASVGDSITITCRASLSINTFLNWYQQKPGKAPNLLIYAASSLHGGVPSRFSGSGSGTDFTLTIRTLQPEDFATYYCQQSSNTPFTFGPGTVVDFR
notes: Human variable regions, mouse IgG2a Fc; also called H2M7798N
Take B5: the dissociation constant (Kd) is 3.79 nM in experiment [1]; 0.0655 nM in experiment [2]; 0.028 nM in experiment [3]; 4.5 nM in experiment [4]; 7 nM in experiment [5]. For the same molecule, the koff stood at 0.000656 s⁻¹ in experiment [1]; 2.29e-05 s⁻¹ in experiment [2]; 1.4e-05 s⁻¹ in experiment [3]; 0.000393 s⁻¹ in experiment [4]; 0.000993 s⁻¹ in experiment [5]. For the same molecule, the kon is 173000 M⁻¹ s⁻¹ in experiment [1]; 350000 M⁻¹ s⁻¹ in experiment [2]; 490000 M⁻¹ s⁻¹ in experiment [3]; 87200 M⁻¹ s⁻¹ in experiment [4]; 142000 M⁻¹ s⁻¹ in experiment [5]. For the same molecule, the t½ was determined as 18 min in experiment [1]; 505 min in experiment [2]; 825 min in experiment [3]; 29 min in experiment [4]; 12 min in experiment [5].

B6: H2aM7795N (antibody, mouse IgG2a, V domains shown)
VH: EVQVVESGGGLVEPGRSLRLSCKASGFTFDDYAMHWVRQTPGKALEWVSGINWSGNNIGYADSVKGRFTISKDDAKNSLYLQMNSLRPEDTALYYCTKDISITGTLDAFDVWGQGTMVTVSS
VL: DIQMTQSPISVSASVGDRVTITCRASQGISNWLAWYQQKPGIAPKLLIYSASSLQSGVPSRFRGSGSGTDFTLTIGSLQPEDFATYYCQQAHSFPLTFGGGTKVEIK
notes: Human variable regions, mouse IgG2a Fc; also called H2M7795N
As to B6, the Kd in experiment [1] is 67.8 nM; in experiment [2], 0.227 nM; in experiment [3], 0.371 nM; in experiment [4] it was 20.1 nM; in experiment [5], 60.2 nM. Also, the koff in experiment [1] was 0.00458 s⁻¹; in experiment [2] it was 3.14e-05 s⁻¹; in experiment [3] it was 6.13e-05 s⁻¹; in experiment [4], 0.000889 s⁻¹; in experiment [5] it was 0.00389 s⁻¹. Also, the kon was 67500 M⁻¹ s⁻¹ in experiment [1]; 138000 M⁻¹ s⁻¹ in experiment [2]; 165000 M⁻¹ s⁻¹ in experiment [3]; 44400 M⁻¹ s⁻¹ in experiment [4]; 64700 M⁻¹ s⁻¹ in experiment [5]. In addition, the t½ is 2.5 min in experiment [1]; 368 min in experiment [2]; 188 min in experiment [3]; 13 min in experiment [4]; 3 min in experiment [5].

B7: H2aM7791N (antibody, mouse IgG2a, V domains shown)
VH: QMQLQQWGAGLLKPSETLSLTCVVYGGSLNGYYWSWIRQSPGKGLEWIGEIDHSGSTNYNPSLKNRVTMSVDTSKIQFSLKLTSVTVADTAVYYCAREGLLPFDYWGQGTLVTVSS
VL: EIVLTQSPGTLSLSPGERVTLSCRASQSVYSNYLAWYQQNPGQAPRLLIYAASNRATGIPDRFSGSGSGTDFTLTISRLEPEDFAVYYCHQYATSPWTFGQGTKVEIK
notes: Human variable regions, mouse IgG2a Fc; also called H2M7791N
In the case of B7, the dissociation constant (Kd) in experiment [1] came to 53.5 nM; in experiment [2] it was 2.49 nM; in experiment [3], 3.59 nM; in experiment [4], 34.4 nM; in experiment [5], 50.5 nM. For the same molecule, the koff in experiment [1] was determined as 0.00224 s⁻¹; in experiment [2], 0.000101 s⁻¹; in experiment [3], 0.000179 s⁻¹; in experiment [4], 0.000553 s⁻¹; in experiment [5], 0.00191 s⁻¹. Also, the kon stood at 41800 M⁻¹ s⁻¹ in experiment [1]; 40500 M⁻¹ s⁻¹ in experiment [2]; 49800 M⁻¹ s⁻¹ in experiment [3]; 16100 M⁻¹ s⁻¹ in experiment [4]; 37900 M⁻¹ s⁻¹ in experiment [5]. For the same molecule, the t½ in experiment [1] is 5.2 min; in experiment [2], 114 min; in experiment [3], 65 min; in experiment [4], 21 min; in experiment [5], 6 min.

B8: H2aM7788N (antibody, mouse IgG2a, V domains shown)
VH: EVQLVESGGGLVQPGGSLRLSCGASGFTFRNYDMHWVRQITGKGLEWVSAIGSAGDTYYPDSVKGRFTISRENAKNSLYLQMNSLRVGDTAVYYCTRDIHCSSTRCYGMDVWGQGTTVTVSS
VL: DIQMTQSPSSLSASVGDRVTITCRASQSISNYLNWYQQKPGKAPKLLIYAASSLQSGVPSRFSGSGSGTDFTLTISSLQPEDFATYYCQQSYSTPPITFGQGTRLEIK
notes: Human variable regions, mouse IgG2a Fc; also called H2M7788N
Take B8: the Kd in experiment [1] was 51.9 nM; in experiment [2], 0.315 nM; in experiment [3], 0.163 nM; in experiment [4], 76.6 nM; in experiment [5], 174 nM. Besides, the koff was 0.00149 s⁻¹ in experiment [1]; 2.82e-05 s⁻¹ in experiment [2]; 2.13e-05 s⁻¹ in experiment [3]; 0.000662 s⁻¹ in experiment [4]; 0.00328 s⁻¹ in experiment [5]. In addition, the on-rate (kon) came out at 28800 M⁻¹ s⁻¹ in experiment [1]; 89400 M⁻¹ s⁻¹ in experiment [2]; 131000 M⁻¹ s⁻¹ in experiment [3]; 8630 M⁻¹ s⁻¹ in experiment [4]; 18800 M⁻¹ s⁻¹ in experiment [5]. Besides, the t½ worked out at 7.7 min in experiment [1]; 410 min in experiment [2]; 542 min in experiment [3]; 17 min in experiment [4]; 3.5 min in experiment [5].
